Measurements published in paper PMC5566378.

Target: human IL-17RA extracellular domain (human), Q96F46
Experiment: SPR
Settings: ligand; chains chain; biotin on the Avi-tag (E. coli BirA), for the SPR measurements only; remark: other sources report otherwise

Kd: 136 nM
B1: human IL-17F homodimer, Q96PD4 31-163 (protein)
chain: RKIPKVGHTFFQKPESCPPVPGGSMKLDIGIINENQRVSMSRNIESRSTSPWNYTVTWDPNRYPSEVVQAQCRNLGCINAQGKEDISMNSVPIQQETLVVRRKHQGCSVSFQLEKVLVTVGCTCVTPVIHHVQ
